Measured values taken from IntAct's records for PubMed 24510189.

B1: mRNA-decapping enzyme 1A (Homo sapiens), Q9NPI6 (parent)
chain: MEALSRAGQEMSLAALKQHDPYITSIADLTGQVALYTFCPKANQWEKTDIEGTLFVYRRSASPYHGFTIVNRLNMHNLVEPVNKDLEFQLHEPFLLYRNASLSIYSIWFYDKNDCHRIAKLMADVVEEETRRSQQAARDKQSPSQANGCSDHRPIDILEMLSRAKDEYERNQMGDSNISSPGLQPSTQLSNLGSTETLEEMPSGSQDKSAPSGHKHLTVEELFGTSLPKEQPAVVGLDSEEMERLPGDASQKEPNSFLPFPFEQLGGAPQSETLGVPSAAHHSVQPEITTPVLITPASITQSNEKHAPTYTIPLSPVLSPTLPAEAPTAQVPPSLPRNSTMMQAVKTTPRQRSPLLNQPVPELSHASLIANQSPFRAPLNVTNTAGTSLPSVDLLQKLRLTPQHDQIQTQPLGKGAMVASFSPAAGQLATPESFIEPPSKTAAARVAASASLSNMVLAPLQSMQQNQDPEVFVQPKVLSSAIPVAGAPLVTATTTAVSSVLLAPSVFQQTVTRSSDLERKASSPSPLTIGTPESQRKPSIILSKSQLQDTLIHLIKNDSSFLSTLHEVYLQVLTKNKDNHNL
partner: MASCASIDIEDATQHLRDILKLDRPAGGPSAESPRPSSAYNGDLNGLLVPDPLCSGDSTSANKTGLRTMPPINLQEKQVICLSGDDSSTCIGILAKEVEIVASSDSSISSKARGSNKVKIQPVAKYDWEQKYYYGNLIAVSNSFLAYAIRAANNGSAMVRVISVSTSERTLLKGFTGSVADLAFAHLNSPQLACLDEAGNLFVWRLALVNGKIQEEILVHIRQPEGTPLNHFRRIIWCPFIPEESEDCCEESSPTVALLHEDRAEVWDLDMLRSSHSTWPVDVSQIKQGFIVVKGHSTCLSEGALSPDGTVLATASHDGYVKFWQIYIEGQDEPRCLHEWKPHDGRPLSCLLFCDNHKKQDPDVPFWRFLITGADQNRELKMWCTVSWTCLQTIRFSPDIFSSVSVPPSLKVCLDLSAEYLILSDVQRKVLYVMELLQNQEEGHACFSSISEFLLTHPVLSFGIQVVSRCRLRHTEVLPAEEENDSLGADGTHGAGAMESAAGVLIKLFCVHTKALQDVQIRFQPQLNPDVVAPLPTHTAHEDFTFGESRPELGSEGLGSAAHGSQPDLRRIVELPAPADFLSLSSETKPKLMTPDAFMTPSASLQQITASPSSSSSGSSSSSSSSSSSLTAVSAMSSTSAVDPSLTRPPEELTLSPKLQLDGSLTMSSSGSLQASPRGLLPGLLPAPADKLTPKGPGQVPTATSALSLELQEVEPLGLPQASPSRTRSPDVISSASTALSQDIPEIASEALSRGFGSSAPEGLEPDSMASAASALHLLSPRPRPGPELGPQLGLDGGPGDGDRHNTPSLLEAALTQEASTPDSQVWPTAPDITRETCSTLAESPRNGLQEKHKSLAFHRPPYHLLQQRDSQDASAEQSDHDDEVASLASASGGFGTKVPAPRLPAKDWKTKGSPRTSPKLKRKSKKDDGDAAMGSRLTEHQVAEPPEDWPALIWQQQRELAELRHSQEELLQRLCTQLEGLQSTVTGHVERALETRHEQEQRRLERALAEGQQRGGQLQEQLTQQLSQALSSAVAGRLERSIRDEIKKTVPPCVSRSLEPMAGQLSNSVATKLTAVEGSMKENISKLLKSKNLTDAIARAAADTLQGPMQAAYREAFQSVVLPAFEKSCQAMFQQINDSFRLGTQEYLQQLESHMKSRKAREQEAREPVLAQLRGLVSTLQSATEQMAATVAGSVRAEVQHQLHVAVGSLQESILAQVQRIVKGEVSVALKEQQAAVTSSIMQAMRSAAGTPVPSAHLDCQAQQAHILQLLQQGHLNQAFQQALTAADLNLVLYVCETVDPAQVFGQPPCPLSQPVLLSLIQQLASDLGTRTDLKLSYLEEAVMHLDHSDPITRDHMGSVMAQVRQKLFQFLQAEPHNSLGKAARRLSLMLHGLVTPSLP
B2: mRNA-decapping enzyme 1A (Homo sapiens), Q9NPI6 (parent)
chain: B1 chain

Variants of: B1
Conditions: with edc4_human EDC4, Q6P2E9

effect of a mutation on the interaction	Variant
with no effect	MEALSRAGQEMSLAALKQHDPYITSIADLTGQVALYTFCPKANQWEKTDIEGTLFVYRRSASPYHGFTIVNRLGMHNLVEPVNKDLEFQLHEPFLLYRNASLSIYSIWFYDKNDCHRIAKLMADVVEEETRRSQQAARDKQSPSQANGCSDHRPIDILEMLSRAKDEYERNQMGDSNISSPGLQPSTQLSNLGSTETLEEMPSGSQDKSAPSGHKHLTVEELFGTSLPKEQPAVVGLDSEEMERLPGDASQKEPNSFLPFPFEQLGGAPQSETLGVPSAAHHSVQPEITTPVLITPASITQSNEKHAPTYTIPLSPVLSPTLPAEAPTAQVPPSLPRNSTMMQAVKTTPRQRSPLLNQPVPELSHASLIANQSPFRAPLNVTNTAGTSLPSVDLLQKLRLTPQHDQIQTQPLGKGAMVASFSPAAGQLATPESFIEPPSKTAAARVAASASLSNMVLAPLQSMQQNQDPEVFVQPKVLSSAIPVAGAPLVTATTTAVSSVLLAPSVFQQTVTRSSDLERKASSPSPLTIGTPESQRKPSIILSKSQLQDTLIHLIKNDSSFLSTLHEVYLQVLTKNKDNHNL [N74G]
disrupting interaction strength	MEALSRAGQEMSLAALKQHDPYITSIADLTGQVALYTFCPKANQWEKTDIEGTLFVYRRSASPYHGFTIVNRLNMHNLVEPVNKDLEFQLHEPFLLYRNASLSIYSIWFYDKNDCHRIAKLMADVVEEETRRSQQAARDKQSPSQANGCSDHRPIDILEMLSRAKDEYERNQMGDSNISSPGLQPSTQLSNLGSTETLEEMPSGSQDKSAPSGHKHLTVEELFGTSLPKEQPAVVGLDSEEMERLPGDASQKEPNSFLPFPFEQLGGAPQSETLGVPSAAHHSVQPEITTPVLITPASITQSNEKHAPTYTIPLSPVLSPTLPAEAPTAQVPPSLPRNSTMMQAVKTTPRQRSPLLNQPVPELSHASLIANQSPFRAPLNVTNTAGTSLPSVDLLQKLRLTPQHDQIQTQPLGKGAMVASFSPAAGQLATPESFIEPPSKTAAARVAASASLSNMVLAPLQSMQQNQDPEVFVQPKVLSSAIPVAGAPLVTATTTAVSSVLLAPSVFQQTVTRSSDLERKASSPSPLTIGTPESQRKPSIILSKSQLQDTLIHSIKNDSSRLSTSHEVYLQVLTKNKDNHNL [L554S;F561R;L565S]
with no effect	MEALSRAGQEMALAALKAADPYITSIADLTGQVALYTFCPKANQWEKTDIEGTLFVYRRSASPYHGFTIVNRLNMHNLVEPVNKDLEFQLHEPFLLYRNASLSIYSIWFYDKNDCHRIAKLMADVVEEETRRSQQAARDKQSPSQANGCSDHRPIDILEMLSRAKDEYERNQMGDSNISSPGLQPSTQLSNLGSTETLEEMPSGSQDKSAPSGHKHLTVEELFGTSLPKEQPAVVGLDSEEMERLPGDASQKEPNSFLPFPFEQLGGAPQSETLGVPSAAHHSVQPEITTPVLITPASITQSNEKHAPTYTIPLSPVLSPTLPAEAPTAQVPPSLPRNSTMMQAVKTTPRQRSPLLNQPVPELSHASLIANQSPFRAPLNVTNTAGTSLPSVDLLQKLRLTPQHDQIQTQPLGKGAMVASFSPAAGQLATPESFIEPPSKTAAARVAASASLSNMVLAPLQSMQQNQDPEVFVQPKVLSSAIPVAGAPLVTATTTAVSSVLLAPSVFQQTVTRSSDLERKASSPSPLTIGTPESQRKPSIILSKSQLQDTLIHLIKNDSSFLSTLHEVYLQVLTKNKDNHNL [S12A;Q18A;H19A]

Variants of: B2
Conditions: with dcp2_human DCP2, Q8IU60

effect of a mutation on the interaction	Variant
with no effect	MEALSRAGQEMSLAALKQHDPYITSIADLTGQVALYTFCPKANQWEKTDIEGTLFVYRRSASPYHGFTIVNGSSGHNLVEPVNKDLEFQLHEPFLLYRNASLSIYSIWFYDKNDCHRIAKLMADVVEEETRRSQQAARDKQSPSQANGCSDHRPIDILEMLSRAKDEYERNQMGDSNISSPGLQPSTQLSNLGSTETLEEMPSGSQDKSAPSGHKHLTVEELFGTSLPKEQPAVVGLDSEEMERLPGDASQKEPNSFLPFPFEQLGGAPQSETLGVPSAAHHSVQPEITTPVLITPASITQSNEKHAPTYTIPLSPVLSPTLPAEAPTAQVPPSLPRNSTMMQAVKTTPRQRSPLLNQPVPELSHASLIANQSPFRAPLNVTNTAGTSLPSVDLLQKLRLTPQHDQIQTQPLGKGAMVASFSPAAGQLATPESFIEPPSKTAAARVAASASLSNMVLAPLQSMQQNQDPEVFVQPKVLSSAIPVAGAPLVTATTTAVSSVLLAPSVFQQTVTRSSDLERKASSPSPLTIGTPESQRKPSIILSKSQLQDTLIHLIKNDSSFLSTLHEVYLQVLTKNKDNHNL [R72G;L73S;N74S;M75G]
with no effect	MEALSRAGQEMSLAALKQHDPYITSIADLTGQVALYTFCPKANQWEKTDIEGTLFVYRRSASPYHGFTIVNRLGMHNLVEPVNKDLEFQLHEPFLLYRNASLSIYSIWFYDKNDCHRIAKLMADVVEEETRRSQQAARDKQSPSQANGCSDHRPIDILEMLSRAKDEYERNQMGDSNISSPGLQPSTQLSNLGSTETLEEMPSGSQDKSAPSGHKHLTVEELFGTSLPKEQPAVVGLDSEEMERLPGDASQKEPNSFLPFPFEQLGGAPQSETLGVPSAAHHSVQPEITTPVLITPASITQSNEKHAPTYTIPLSPVLSPTLPAEAPTAQVPPSLPRNSTMMQAVKTTPRQRSPLLNQPVPELSHASLIANQSPFRAPLNVTNTAGTSLPSVDLLQKLRLTPQHDQIQTQPLGKGAMVASFSPAAGQLATPESFIEPPSKTAAARVAASASLSNMVLAPLQSMQQNQDPEVFVQPKVLSSAIPVAGAPLVTATTTAVSSVLLAPSVFQQTVTRSSDLERKASSPSPLTIGTPESQRKPSIILSKSQLQDTLIHLIKNDSSFLSTLHEVYLQVLTKNKDNHNL [N74G]

Variants of: B2
Conditions: with pnrc2_human PNRC2, Q9NPJ4
Sequence of pnrc2_human PNRC2, Q9NPJ4 (Q9NPJ4 whole entry): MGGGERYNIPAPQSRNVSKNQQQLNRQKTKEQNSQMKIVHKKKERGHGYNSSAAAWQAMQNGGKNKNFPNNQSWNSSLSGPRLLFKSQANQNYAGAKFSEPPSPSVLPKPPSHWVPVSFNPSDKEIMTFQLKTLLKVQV

effect of a mutation on the interaction	Variant
with no effect	MEALSRAGQEMSLAALKQHDPYITSIADLTGQVALYTFCPKANQWEKTDIEGTLFVYRRSASPYHGFTIVNGSSGHNLVEPVNKDLEFQLHEPFLLYRNASLSIYSIWFYDKNDCHRIAKLMADVVEEETRRSQQAARDKQSPSQANGCSDHRPIDILEMLSRAKDEYERNQMGDSNISSPGLQPSTQLSNLGSTETLEEMPSGSQDKSAPSGHKHLTVEELFGTSLPKEQPAVVGLDSEEMERLPGDASQKEPNSFLPFPFEQLGGAPQSETLGVPSAAHHSVQPEITTPVLITPASITQSNEKHAPTYTIPLSPVLSPTLPAEAPTAQVPPSLPRNSTMMQAVKTTPRQRSPLLNQPVPELSHASLIANQSPFRAPLNVTNTAGTSLPSVDLLQKLRLTPQHDQIQTQPLGKGAMVASFSPAAGQLATPESFIEPPSKTAAARVAASASLSNMVLAPLQSMQQNQDPEVFVQPKVLSSAIPVAGAPLVTATTTAVSSVLLAPSVFQQTVTRSSDLERKASSPSPLTIGTPESQRKPSIILSKSQLQDTLIHLIKNDSSFLSTLHEVYLQVLTKNKDNHNL [R72G;L73S;N74S;M75G]
